Source: patent publication US20240059759A1 (BIGHAT BIOSCIENCES, published 2024)

How the values were obtained:
SARS-CoV-1 RBD [1] = target: T1, SARS-CoV-1 RBD (SARS-CoV-1, UniProt P59594 306-527)
SARS-CoV-1 RBD [2] = target: T1, SARS-CoV-1 RBD; remark: listed apart in the source

Binder | Rel. EC50 - ELISA (SARS-CoV-1 RBD [1]) | EC50 (SARS-CoV-1 RBD [2])
VHH-72(S57G) (VHH) VHH: QVQLQESGGGLVQAGGSLRLSCAASGRTFSEYAMGWFRQAPGKEREFVATISWSGGGTYYTDSVKGRFTISRDNAKNTVYLQMNSLKPDDTAVYYCAAAGLGTVVSEWDYDYDYWGQGTQVTVSS | 0.3 relative to WT | –
VHH-72 (S57A) (VHH) VHH: QVQLQESGGGLVQAGGSLRLSCAASGRTFSEYAMGWFRQAPGKEREFVATISWSGGATYYTDSVKGRFTISRDNAKNTVYLQMNSLKPDDTAVYYCAAAGLGTVVSEWDYDYDYWGQGTQVTVSS | 0.43 relative to WT | –
VHH-72 (S57Y) (VHH) VHH: QVQLQESGGGLVQAGGSLRLSCAASGRTFSEYAMGWFRQAPGKEREFVATISWSGGYTYYTDSVKGRFTISRDNAKNTVYLQMNSLKPDDTAVYYCAAAGLGTVVSEWDYDYDYWGQGTQVTVSS | – | > 10 µg/mL
